Here are results for 4 molecules from paper PMC10349855, “Structural basis for specific RNA recognition by the alternative splicing factor RBM5”.

Changes are numbered by the printed parent chain.

For series [1], the target named is T1, RBM5 RRM1 F142A/F144A (human, UniProt P52756 94-184, F142A;F144A).
T1 sequence: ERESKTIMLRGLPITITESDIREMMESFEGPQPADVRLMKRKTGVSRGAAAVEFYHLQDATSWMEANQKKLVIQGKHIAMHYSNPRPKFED
As to the kind of experiment: NMR; 20 mM MES pH 6.5, 100 mM NaCl, 1 mM DTT, 25 C; protein 0.1-0.2 mM. The following applies: tags: His-thioredoxin, TEV-cleaved (scar left out).

The target in series [2] is T2, RBM5 RRM1 (human, UniProt P52756 94-184).
T2 sequence: T1 sequence with A49F, A51F
Kind of series: ITC; 20 mM MES pH 6.5, 100 mM NaCl, 2 mM 2-mercaptoethanol, 25 C; protein 10-30 uM in the cell; one-site fit. The following applies: tags: His-thioredoxin, TEV-cleaved (scar left out).

The target in series [3] is T3, RBM5 RRM1-ZnF1 wt (Homo sapiens, UniProt P52756 94-210, I107T).
T3 sequence: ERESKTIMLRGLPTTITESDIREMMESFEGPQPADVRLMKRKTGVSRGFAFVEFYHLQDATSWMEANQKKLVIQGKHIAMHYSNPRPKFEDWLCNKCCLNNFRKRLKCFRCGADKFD
Kind of series: ITC; Zn; 20 mM MES pH 6.5, 100 mM NaCl, 2 mM 2-mercaptoethanol, 25 C; protein 10-30 uM in the cell; one-site fit. Conditions: tags: none; N-terminal Met-Gly from the NcoI site (left out).

For series [4], the target named is T4, RBM5 RRM1-ZnF1 wt (human, UniProt P52756 94-210).
T4 sequence: T3 sequence with T14I
As to the kind of experiment: ITC; ITC: 20 mM MES pH 6.5, 100 mM NaCl, 2 mM BME, 25 C; NMR: 20 mM MES pH 6.5, 100 mM (single RRMs) or 400 mM (multidomain) NaCl, 1 mM DTT, 298 K. Conditions: protein: recombinant.

Series [5] deals with T5, RBM5 RRM1-ZnF1S (Homo sapiens, UniProt P52756 94-210, I107T;C191G).
T5 sequence: T3 sequence with C98G
Kind of series: ITC; Zn; 20 mM MES pH 6.5, 100 mM NaCl, 2 mM 2-mercaptoethanol, 25 C; protein 10-30 uM in the cell; one-site fit. The following applies: tags: none; N-terminal Met-Gly from the NcoI site (left out).

Series [6] concerns the target T6, RBM5 RRM1-ZnF1 F142/144A (Homo sapiens, UniProt P52756 94-210, I107T;F142A;F144A).
T6 sequence: T3 sequence with F49A, F51A
The series is described as above. Conditions: tags: none; N-terminal Met-Gly from the NcoI site (left out).

Series [7] has as its target T7, RBM5 RRM1-ZnF1 R198E (Homo sapiens, UniProt P52756 94-210, I107T;R198E).
T7 sequence: T3 sequence with R105E
Described as above. The following applies: tags: none; N-terminal Met-Gly from the NcoI site (left out).

Series [8] concerns the target T8, RBM5 RRM1-ZnF1 F202A (Homo sapiens, UniProt P52756 94-210, I107T;F202A).
T8 sequence: T3 sequence with F109A
The description is as above. The following applies: tags: none; N-terminal Met-Gly from the NcoI site (left out).

Series [9] concerns the target T9, RBM5 RRM1-ZnF1S-RRM2 (human, UniProt P52756 94-315, C191G).
T9 sequence: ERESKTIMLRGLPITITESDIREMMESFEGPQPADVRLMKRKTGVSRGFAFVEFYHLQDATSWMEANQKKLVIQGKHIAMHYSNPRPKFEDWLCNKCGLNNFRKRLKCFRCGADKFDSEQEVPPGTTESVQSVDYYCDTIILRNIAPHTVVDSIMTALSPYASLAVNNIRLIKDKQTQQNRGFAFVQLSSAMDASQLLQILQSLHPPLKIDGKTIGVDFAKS
The description is as above. Conditions: tags: His-thioredoxin, TEV-cleaved (scar left out).

The target of series [10] is T10, RBM5 RRM1-ZnF1 F142A/F144A (human, UniProt P52756 94-210, F142A;F144A).
T10 sequence: T3 sequence with T14I, F49A, F51A
As to the kind of experiment: ITC; ITC: 20 mM MES pH 6.5, 100 mM NaCl, 2 mM BME, 25 C; NMR: 20 mM MES pH 6.5, 100 mM (single RRMs) or 400 mM (multidomain) NaCl, 1 mM DTT, 298 K. Conditions: protein: recombinant.

Series [11] deals with T11, RBM5 RRM1-ZnF1S (human, UniProt P52756 94-210, C191G).
T11 sequence: T3 sequence with T14I, C98G
Described as above. The following applies: protein: recombinant.

For series [12], the target named is T12, RBM5 RRM1-ZnF1 F202A (human, UniProt P52756 94-210, F202A).
T12 sequence: T3 sequence with T14I, F109A
The description is as above. Conditions: protein: recombinant.

The target in series [13] is T13, RBM5 RRM1-ZnF1 R198E (human, UniProt P52756 94-210, R198E).
T13 sequence: T3 sequence with T14I, R105E
The series is described as above. The following applies: protein: recombinant.

In series [14] the target is T14, RBM5 RRM2 (human, UniProt P52756 231-315).
T14 sequence: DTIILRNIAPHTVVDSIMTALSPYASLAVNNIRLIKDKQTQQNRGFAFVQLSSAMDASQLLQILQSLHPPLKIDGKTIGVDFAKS
Kind of series: ITC; average of two; ITC: 20 mM MES pH 6.5, 100 mM NaCl, 2 mM BME, 25 C; NMR: 20 mM MES pH 6.5, 100 mM (single RRMs) or 400 mM (multidomain) NaCl, 1 mM DTT, 298 K. The following applies: protein: recombinant; tags: His-Trx tag, TEV cleaved.

In series [15] the target is T4, RBM5 RRM1-ZnF1 wt. Kind of series: ITC; average of two; text 153 nM; ITC: 20 mM MES pH 6.5, 100 mM NaCl, 2 mM BME, 25 C; NMR: 20 mM MES pH 6.5, 100 mM (single RRMs) or 400 mM (multidomain) NaCl, 1 mM DTT, 298 K. The following applies: protein: recombinant.
Series [16] concerns the target T11, RBM5 RRM1-ZnF1S. Kind of series: X-ray crystallography; Zn2+; 3.5 A; ITC: 20 mM MES pH 6.5, 100 mM NaCl, 2 mM BME, 25 C; NMR: 20 mM MES pH 6.5, 100 mM (single RRMs) or 400 mM (multidomain) NaCl, 1 mM DTT, 298 K. The following applies: protein: recombinant.
Series [17] deals with T11, RBM5 RRM1-ZnF1S. Kind of series: ITC; N about 0.6; Discussion prints 6 uM but also 2.4-fold weaker than 263 nM; ITC: 20 mM MES pH 6.5, 100 mM NaCl, 2 mM BME, 25 C; NMR: 20 mM MES pH 6.5, 100 mM (single RRMs) or 400 mM (multidomain) NaCl, 1 mM DTT, 298 K. Conditions: protein: recombinant.

Turning to UCUCUUCUC (ssRNA) [CU_9], in series [1], the binding result is reported as “no binding”. In addition, the equilibrium dissociation constant (Kd) in series [2] was determined as 19700 ± 6500 nM; in series [3], 5560 ± 2830 nM; in series [4], 6000 nM.

As for UGGCUCUUCUCU (ssRNA) [GGCU_12], the Kd worked out at 1880 ± 950 nM in series [2]; 263 ± 27 nM in series [5]; 448 ± 36 nM in series [6]; 153 ± 69 nM in [3]; 2660 ± 380 nM in [7]; 379 ± 41 nM in series [8]. Further, the Kd was determined as 133 ± 12 nM in series [9]; 448 nM in series [10]; 263 ± 27 nM in series [11]; 379 nM in series [12]; 2700 nM in [13]; 173000 nM in series [14]. Moreover, in series [15], the Kd was found to be 153 nM.

On to UGGCUCUUCU (ssRNA) [GGCU_10], for which the binding result in series [16] is listed as “binds”.

Regarding ACUUGGCUCUUCUCU (ssRNA) [eGGCU_12], the Kd in series [5] and in [17] was 641 ± 125 nM throughout.
